Data published in paper doi:10.1101/2024.09.03.610704.

Columns and labels:
[1] = target: mitochondrial respiratory complex III dimer (Chlamydomonas reinhardtii); assay: cryo-EM structure
[2] = target: mitochondrial respiratory complex IV monomer (Chlamydomonas reinhardtii); assay: cryo-EM structure

cytochrome c (from UniProt P15451 1-112) (natural protein)
stoichiometry N (cyt. c per complex III dimer) [1]: 2
stoichiometry N (cyt. c per complex IV monomer) [2]: 1
